Measurements from the nanobody polyreactivity screen of Harvey et al. (2022).

assay: yeast display, Sf9 membrane polyspecificity reagent, FACS + sequencing; frameworks hold sequencing errors
Outline: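 A synthetic nanobody library was expressed on Saccharomyces cerevisiae BJ5465 by galactose induction for 36–48 hours. The library was stained for 1 hour at 4 °C with 10% biotinylated, detergent-solubilized Sf9 membrane reagent and enriched with streptavidin microbeads before FACS. Low and high (top ~1%) gates were set on anti-HA fluorescence for expression and streptavidin fluorescence for reagent binding, and each polyreactivity label reflects the gate of origin.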

Sequence	polyreactivity (PSR sort gate)
QVHLVESGGGLVQAGGSLRLSCAASGSTLGYYAMGWYRQAPGKERELVASIRWDTASTYYADSVKGRFTISRDNAKNTVYLQMNSLKPEDTAVYYCNAGRPRFYRCRWYYYGYGYWGQGTQVTVSS	high polyreactivity
QVQLVDSGAGLVQAGGSLRLSCPASGRIFAVNAMGWYRKAPGKERELVAAINGGGSTNYADSVKGRFTISRDNAKNTVYLQMNSLKPQDTAVYYCAADVGWRSQTRGYYWGQGTQVTVSS	high polyreactivity
QVQLVEAGGGLVQAGGSLRLSCAASGRIFVYYTMGWYRQAPGKERELVAAIIGGGSTNYADSVKGRFTISRDNAKNTVYLQMNSLKPEDTAVYDCAAVRYRYSYVSHSRIYDYWGQGTQVTVSS	high polyreactivity
QVQLVESGGGLVQAGGSLRLSCAASGRIIGSYAMGWYRQAPGKERELVAAISRGGITNYADSVKGRFTIARDNAKNTVYLQMNSLKPEDTAVYYCAVGIRYRGRQGYYGYYTYDYWGQGTQVTVSS	high polyreactivity
QVQLVESGGGLVQAGGSLRLSCAASGFTFRVYAMGWYRQAPGKERELVAAISSGGSTNYADSVKGRFTISRDNAKNTVYLQMNSLKPEDTAVYYCAARQRYYSERPQYSGFYYWGQGTQVTVSS	high polyreactivity
QVQLVESGGGLVQAGGSLRLSCAASGSTYALNAMGWYRQAPGKDRDLVDAISRRGGSTYYADSVKGRFTISRDNAKNTVYLQMNSLKPEDTAVYYCAARNQSQRTGYDFWGQGTQVTVSS	high polyreactivity
QVHLVDSAGGLVQAGGNLSLSCEASGSIFRAYAMGWYRQAQGKERELVADISRSGGSTYYAESVKGRFTISRDNAKNTVYLQRNSLKPEDTAVSYGAAVFYLFSNLYGEYDYWGQGTQVTVSS	low polyreactivity
QVQLVESGGGLVQAGGSLRLICAASGSIFYHNGMGWYRQAPGKERELVAGISSTGSTYYADSVKGRVTLSRDNAKNTVYLQMNSLKPEDTAVYYCATDFGDIGDDAHSLGYDYWGQGTQVTVSS	low polyreactivity
QVQLVESGGGLVQAGGSLRLSCAASGRLFVYNAMGWYRQAPGKERELVAAISWRGGSTYYADSVKGRFTISRDNAKNTVYLQMYSLKPEDTAVYDCAAQRTARQFDYWGQGTQVTVSS	high polyreactivity
QVQLVESGGGLVQAGGSLRLSCAASGRIFFSTVMGWDRQAPGKERELVAAISWSGGSTYYADSVKGRFTISRDNAKNTVYLQMNSLKPEDTAVYYCNRLSASVQYGYWGQGTQVTVSS	high polyreactivity
QVHLVESGGGLVQAGGSLRLSCAASGSTFYPYAMGWYRQAPGKEREVVAGISRSGGTTYYADSVKGRFTISRDNANNTVYLQMNSLKPEDTAVYYCAVQIPYVYWSYDYWGQGTQVTVSS	low polyreactivity
QVQLVESGGGLVQAGGTLRLSCAASGGIFSYAMGWYRQAPGKERELVADINSDGSTTYADSVKGRFTISRDNAKNTVYLQMNSLKPEDTAVYYCAADTYFWSYSYNYYYWGQGTQVTVSS	low polyreactivity
QVQLVESGGGLVQAGGSLRLSCAASGYILDRNAMGWYIQAPGKEREFVAVISWGGTRTYYADSVKGRFTISRDNAKNTVYLQMNSLKPEDTAVYYCARYPYYYGYAGRYDYWGQGTQVTVSS	high polyreactivity
QVQLVESGGGLVQAGGSLRLICAASGNTFKYNAMGWYRQAPGKERELVAAITWRGTSTSYADSVKGRFTISRDNAKNTVYLQMNSLKAEDTAFYYSNAVYYWYGRVAYSFGYWGQGTQVTVSS	high polyreactivity
QVQLVESGGGLVQAGGSLRLSCAASGRIIARYAMGWSRQAPGKERELVAAISRGGGRTYYADSVKGRFTISRDNATNTVYLQMNSLKPEDTAVYYCAADAYSIASVGYDYWGQGTQVTVSS	high polyreactivity
QVQLVESGGRLVQAGGSLRLSCAASGLIFADYTMGWYRQAPGKERELVAVITDGDSTYYADSVKGRFTISRDNAKNTVYLQMNSLKPEDTAVYYCAARSAILKSGYLMDYWGQGTQVTVSS	low polyreactivity
QVKLVESGGGLVQAGGSLRLSCAASGNTLYFNAMGWYRQAPGKERELVADISWGGGSTDYADSVKGRFTISRDNAKNTVYLQMNSLKPEDTAVYYCAADILSLPEYDYWGQGTQVTVSS	low polyreactivity
QVQLVESGGGLVQAGGSLRLSCAASGRIFDGYAMGWYRQAPGKERELVAAISSRGGRTYYADSVKGRFTISRDNAKNTVYLQMNSLKPEDTAVYYCAGDDPYGEGDYWGQGTQVTVSS	low polyreactivity
QVHLVESGGGLVQAGGSLRLSCASSGFTFRANAMGWYRPAPGKERELVAVITGSGRTYYAHSVKGRFTISRDNAKNSVYLKMNSLKPEDTAVYYCAARAAYRVSSTGYDSWGQGSQVTVSS	high polyreactivity
QVQLVESGGGLVQAGGSLRLSCAASGSIFWFNAMGWYRQAPGKERELVAAINSSGGRTYYADSVKGRFTISRDNAKNTVYLQMNSLKPEDTAVYYCNALLWGNPASYGYWGQGTQVTVSS	high polyreactivity

Sequence	polyreactivity (PSR sort gate)
QVQLVESGGGLVQAGGSLRLSCAASGSIFSYNAMGWYRQAPGKERELVAAISWSGGSTYYADSVKGRFTISRDNAKNTVYLQMNSLKPEDTAVYYCNAYRYRQSSSDKYGYWGQGTQVTVSS	high polyreactivity
QVQLVESGGGLVQAGGSLRLSCAASGIIFRYYALGWYRKAPRKERELVAAINWRGGRTYYADSVKGRFTISRDNAKNTVYLQMNSLKPEDTAVYYCAAYIYYPYRNDYWGQGTQVTVSS	high polyreactivity
QVQLVESGGGLVQAGGSLRLSCAASGDIYDAYAMGWYRQAPGKERELVAAISRSGGSTYYSDSVKGRFTISRDNAKNTVYLLMNSLKPEDTAVYYCATRFSRRYVRYDYWGQGTQVTVSS	high polyreactivity
QVHLVESGGGLVQAGGSLRLSCAASGIIFGRFTMGWYRQAPGKERELVAAITSSGITYYADSLKGRFTISRDNAKNTVYLQMNSLKPEDTAVSYCNADYSIPGYYWPFDYWGQGTQVTVSS	low polyreactivity
QVQLVESGGGLVQAGGSLRLSCAASGRIINYNARGWYRQAPGKERELVAAISSSGGSTYYADSVKGRFTISRDNAKNTVYLQMNSLKPEDTAVYYCNALGTTEYWSRDDYWGQGTQVTVSS	low polyreactivity
QVQLVESGGGLVQAGCSLRLSCAACGFTFIPNAMGWYRQAPAKERELVAAISFGGGSTYYADSVKGRFTISRDNAKNTVYLQMNSMKPEETAVYYCAAEAFVSYEPYWYVRYYSSYNYWGQGTQVTVSS	high polyreactivity
QVQLVESGGGLVQAGGSLRLSCAASGGIYYSNAMGWYRQAPGKERELVAAISRDGTITYYADSEKGRFTSSRDNAKNTVYLQMNSLKPEDTAVYSCASDPSIPSWYSIYVYWGQGTQVTVSS	high polyreactivity
QVQLGESGGGLVQAGGSHRLICAATASTLGGYAMGWYRQAPGTERELVAAITRSGGSTYYADSVKGRFTISRDNAKNTVYLQMNSLKPEDTSVNYCGADRYSYFNIGYDYWGQGTQVTVSS	low polyreactivity
QVQLVESGGGLVQAGGSLRLSCAASGFTISQYAMGWYRQAPGKERELVAAISASGGRTYYADSVKGRFTISRDNAKNTVYLQMNSLKPDDTAVYYCAAKLYVSGGRYWYDYWGQGTQVTVSS	high polyreactivity
HVQLVESGGGLVQAGGSLRFSCAASGFIFTNYAMGWYRQAPGTERELVAAISFSGSSTYYADSVKGRFTISRDNAKNTVYLQMNSLNPEDTAVYYCAVDGVPSSFSHDYWGQGTKVTVSS	low polyreactivity
QVQLVESGGGFVQAGGSLRLRCAASGLIFAPYAMGWYRQAPGKEREFVAAITRSDGSTYYADSVKGRFTISRDNAKNTVYLQMNSLKPEDTAVYYCAAEPDTYWYTYDYWGQGSQVTVSS	low polyreactivity
QVQLVESRGGLVQAGGSLGLSCAASGSTFGYYAMGWYRQAPGKERELVAGISTGGSTYYAYSVKGRFTISRDNAKNTVYFQINSLKPDDTAVYYCAATRYNRWPIKFDYWGQGTQVTVSS	high polyreactivity
QVQLVESGGGLDQAGGSLRLSCAASGSIFFYNVLGWYRQAPGKERELVASISWRGASTYYADSVKGRFTISRDNAKNTVYLQMNSLKPEDTAVYYCAARFRSATRYQTGYYWGQGTQVTVSS	high polyreactivity
QVQLVESGGGLVQAGGSLRLSCAASGRTFVDYDMGWYRQAPGKERELVADINSGGSTYYADSVKGRFTISRDNAKNTVYLQMNRLKPEDTAVYYCAADDGWGYISSYDYEYWGQGTQVTVSS	high polyreactivity
QVQLVESGGGLVQAGGSLRLSCAASGRIFSYYAMGWYRQAPGKERELVAAISKGGTSTYYADSVKGRFTISRDNSKNTVYLQMNRLKPEDTAVYYCAAARPKPVDYLGQGTQVTVSS	high polyreactivity
QVQLVESGGGLVQAGGSLRISCAASGLTFRRNAMGGYRQAPGKERELFAAITASGGSTYYADSVTGRFTISRDNAKNTVFLQMNSLKPEETAVYYSAAVNYRWYSRNYDHYYWGQGTQVTVSS	high polyreactivity
QVQLVESGGGLVQAGGSLRLSCAASGSTFYANAMGWYRQAPGKERELVAVIRWSGGSTYYADSVKGRFTISRDNAKNTVYLQMNSLKPEDTAVYYCNADFYRVAYLRRYSHFDYWGQGTQVTVSS	high polyreactivity
QVQLVESGGGLVQAGGSLRLSCAASGSIFRYYAMGWYRQAPGKEREFVASITYRGGRTYYADSVKGRFTISRDNAKNTVYLQMNSLKPEDTAVYYCAARTRAGAWTSKYLDYWGQGTQVTVSS	high polyreactivity
QVQLVESGGGLVQAGGSLRLSCAGSGGPFLDYIGWYRQAPGKEMVLVAAITFSGGSTYYADSVKGRLTISRENAKNTVYVQMNSLKPDDTAVYFCAAGWYDWPKYLLGGYTYYLYDSWRQGTQVTVSS	low polyreactivity
QVQLVESGGGLVQAGGSLRLSCAASGRTFGRNVMGWYRQAPGKERELVAAISRSGGSTYYADSVKGRFTISRDNAKNTVYLQMNSLKPEDTAVYYCAAKYYRDRDWGQGTQVTVSS	high polyreactivity
